The text below walks through data of patent publication US20230357415A1 (AJOU UNIVERSITY INDUSTRY ACADEMIC COOPERATION FOUNDATION, published 2023).

Sequences and labels used below:
T1: purified sIL-5Rα (Asp1-Asn313 of SEQ ID NO: 66) (Homo sapiens (Human), UniProt Q01344 21-333)
T1 construct: also called the purified sIL-5Rα
T1 sequence: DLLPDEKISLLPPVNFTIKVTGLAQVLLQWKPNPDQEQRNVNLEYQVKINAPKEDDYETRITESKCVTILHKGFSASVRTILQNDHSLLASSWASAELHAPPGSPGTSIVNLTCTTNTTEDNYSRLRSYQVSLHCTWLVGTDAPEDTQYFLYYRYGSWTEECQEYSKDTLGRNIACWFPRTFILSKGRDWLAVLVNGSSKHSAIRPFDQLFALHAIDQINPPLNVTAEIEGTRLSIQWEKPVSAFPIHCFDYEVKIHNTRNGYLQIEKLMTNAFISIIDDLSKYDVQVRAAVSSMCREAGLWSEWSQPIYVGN

B1: 4R.N5 (antibody, V domains shown)
VH: EVQLLESGGGLVQPGGSLRLSCAASGFTFSRHAMAWVRQAPGKGLEWVSAITASGMSIYYADFAKGRFTISRDNSKNTLYLQMNSLRAEDTAVYYCARVHRAFDYWGQGTLVTVSS
VL: QSVLTQPPSASGTPGQRVTISCSGSPLFPDSGSFNWYQQLPGTAPKLLIYADSHRPSGVPDRFSGSKSGTSASLAISGLRSEDEADYYCGTWDYSLNRYVLGGGTKLTVLG
notes: Converted from scFab to IgG1 and expressed in HEK293F
B2: 5R65 (antibody, V domains shown)
VH: QVQLVQSGAEVKKPGSSVKVSCKASGYTFTSYWINWVRQAPGQGLEWIGHIYPNKNENYYNHKFKDKATLTVDKSTNTAYMELSSLRSEDTAVYYCTRDYYGRSYYYAMDYWGQGTTLTVSS
VL: DIQMTQSPSTLSASVGDRVTITCKASQNVGTAVAWYQQKPGKAPKLLIYWASTRHTGVPDRFSGSGSGTDFTLTISSLQPDDFATYYCQQFGRYPYTFGSGTKVEVK
notes: IgG1 (variable regions in a pcDNA3.4 vector encoding IgG1 constant regions); also called anti-IL-5Rα humanized antibody 5R65; anti-IL-5Rα antibody (5R65)
B3: 5R65.10 (antibody, IgG1, V domains shown)
VH: QVQLVQSGAEVKKPGSSVKVSCKASGYTFTSYWINWVRQAPGQGLEWIGHIYPNKNENYYNHKFKDKATLTVDKSTNTAYMELSSLRSEDTAVYYCTREYYGRSYYAAMDYWGQGTTLTVSS
VL: DIQMTQSPSTLSASVGDRVTITCKASQNVGTAVAWYQQKPGKAPKLLIYWASTRHTGVPDRFSGSGSGTDFTLTISSLQPDDFATYYCQQFGRYPYTFGSGTKVEVK
notes: IgG1
B4: 5R65.7 (antibody, IgG1, V domains shown)
VH: QVQLVQSGAEVKKPGSSVKVSCKASGYTFTSYWINWVRQAPGQGLEWIGHIYPNKNENYYNHKFKDKATLTVDKSTNTAYMELSSLRSEDTAVYYCTREFYGRQYYQAMDYWGQGTTLTVSS
VL: DIQMTQSPSTLSASVGDRVTITCKASQNVGTAVAWYQQKPGKAPKLLIYWASTRHTGVPDRFSGSGSGTDFTLTISSLQPDDFATYYCQQFGRYPYTFGSGTKVEVK
notes: IgG1
B5: 5R65.14 (antibody, IgG1, V domains shown)
VH: QVQLVQSGAEVKKPGSSVKVSCKASGYTFTSYWINWVRQAPGQGLEWIGHIYPNKNENYYNHKFKDKATLTVDKSTNTAYMELSSLRSEDTAVYYCTREHYGRPYYNAMDYWGQGTTLTVSS
VL: DIQMTQSPSTLSASVGDRVTITCKASQNVGTAVAWYQQKPGKAPKLLIYWASTRHTGVPDRFSGSGSGTDFTLTISSLQPDDFATYYCQQFGRYPYTFGSGTKVEVK
notes: IgG1
B6: 5R65.18 (antibody, IgG1, V domains shown)
VH: QVQLVQSGAEVKKPGSSVKVSCKASGYTFTSYWINWVRQAPGQGLEWIGHIYPNKNENYYNHKFKDKATLTVDKSTNTAYMELSSLRSEDTAVYYCTREYYGRTYYSAMDYWGQGTTLTVSS
VL: DIQMTQSPSTLSASVGDRVTITCKASQNVGTAVAWYQQKPGKAPKLLIYWASTRHTGVPDRFSGSGSGTDFTLTISSLQPDDFATYYCQQFGRYPYTFGSGTKVEVK
notes: IgG1

For one experiment, the target named is T2, sIL-4Rα (soluble IL-4Rα) antigen protein (human, UniProt P24394 26-232).
T2 construct: The ELISA and Octet assays used the bought protein (Sinobio 10402-H08H); also called CD124; sinobio 10402-H08H
Description: BLI (Octet QKe), antibody on AHC sensor, sIL-4Rα in solution, 1:1 model. As to the method: Antigen affinity of antibodies was analyzed through variation in the refractive index occurring when the antibody bound to the antigen was detached therefrom while the AHC (anti-human IgG Fc capture) sensor chip moved in the order of kinetic buffer, antibody dilution solution, kinetic buffer, antigen dilution solution, and kinetic buffer. Affinity was calculated with Octet Data Analysis software 11.0 in a 1:1 binding model.
(In general: Biolayer interferometry detects binding as a change in optical thickness at a sensor tip.)
For the molecule B1, the affinity, expressed as Kd, was 0.0748 nM; the koff (commonly the rate constant with which the complex falls apart) was 0.00012 s⁻¹; the kon (usually the second-order rate constant of association) worked out at 1.6e+06 M⁻¹ s⁻¹.

The next experiment addresses T1, purified sIL-5Rα (Asp1-Asn313 of SEQ ID …). Description: BLI (Octet QKe), antibody on AHC sensor, purified sIL-5Rα in solution, 1:1 model. As to the method: Specifically, lx kinetic buffer was prepared by diluting 10× kinetic buffer (ForteBio, 18-1105) in PBS. […] Affinity was calculated with Octet Data Analysis software 11.0 in a 1:1 binding model.
Regarding B2, the Kd – broadly, the constant that tells how readily two partners part at equilibrium – is 14.5 nM; the koff stood at 0.000329 s⁻¹; the kon worked out at 22700 M⁻¹ s⁻¹.

The molecule B3 returned a Kd of 8.25 nM, a koff of 0.000201 s⁻¹ and a kon of 24400 M⁻¹ s⁻¹.

In turn, B4 registered a Kd of 4.64 nM, a koff of 0.000147 s⁻¹ and a kon of 31700 M⁻¹ s⁻¹.

B5 registered a Kd of 8.64 nM, a koff of 0.000199 s⁻¹ and a kon of 23000 M⁻¹ s⁻¹.

Take B6: the affinity, expressed as Kd, was 5.95 nM; the koff was 0.000133 s⁻¹; the kon is 22400 M⁻¹ s⁻¹.
